What all share (assay type): biochemical
One series deals with Plasmin (Homo sapiens, UniProt P00747). Briefly: Velocity of S2251 substrate cleavage (Michaelis-Menten). The note with it: plasmin 100 nM, Pi 50 nM, S2251 0.1 to 4 mM. How it is done: FIGS. 2A-2D show comparative inhibition of plasmin activity by Pi EACA and a2AP. […] The percent residual activity of plasmin as a function of the log concentration of inhibitor is shown. […] Human plasmin (100 nM, Hematologic Technologies, Inc.) was mixed with or without Pi (50 nM) in the presence of the substrate S2251 (0.1 to 4 mM). The initial rate of substrate cleavage (6 min.) was monitored at A405. Data were plotted and analyzed using Michaelis-Menten kinetics by the Graphpad Prism Program. Means (duplicate observations) are shown and are representative of 4 separate experiments. […] The means of duplicate observations are shown. […] Plasmin (25 nM) was mixed with various concentrations (0-200 nM) of mouse Fab or chimeric Fab (cFab) and S2251 (0.5 mM) in TBS buffer pH 7.4. Plasmin activity was measured by the release of paranitroanilide product at A405 over time.
The effect of Pi on the velocity of substrate cleavage by human plasmin was examined. Human plasmin (100 nM, Hematologic Technologies, Inc.) was mixed with or without Pi (50 nM) in the presence of the substrate S2251 (0.1 to 4 mM). The initial rate of substrate cleavage (6 min.) was monitored at A405. Data were plotted and analyzed using Michaelis-Menten kinetics by the Graphpad Prism Program.

For series [1], the system named is human clot lysis initiated by r-tPA. The experiment in a line: Clot lysis assay of Pi, MAb 340 and control MAb with r-tPA. The note with it: human plasma, MAb 20 ug, r-tPA 2 nm. As for the experimental part: FIGS. 3A-3D show binding and inhibitory specificity of Pi. […] The effect of various concentrations of Pi (0-2000 nM) on clots formed with human, baboon or African green monkey plasmas. Clot lysis was measured in microtiter plates after addition of urokinase as described in Methods.
The comparative effects of Pi, MAb 340 and a control MAb (anti-digoxin) were examined in a clot lysis assay in microtiter plates. Human plasma (50 ul) was mixed with the MAbs (20 ug) in duplicate and then clotted with CaCl2 and thrombin, with or without recombinant (r)-tPA (2 nm). Clot dissolution at 37 deg. C. was monitored at 405 nm for 120 min. The time required to fully dissolve the clots during the 120 min. observation period was recorded.

For series [2], the target named is plasmin-mediated cleavage of factor V (Homo sapiens, UniProt P00747). The experiment in a line: Factor V cleavage by plasmin, SDS-PAGE. The note with it: EACA 1 mM or Pi 5 ug, 1 hr RT. As for the experimental part: FIGS. 4A-4D show comparative inhibition of factor V cleavage and human clot fibrinolysis (dissolution) by Pi, EACA and a2AP. […] The relative migration of molecular weight standards is shown (kDa). […] Human plasma was clotted with CaCl2 (10 mM) and thrombin (1 U/ml) in the presence of trace amounts of 1251 fibrinogen for 1 h at 37 deg. C. After washing in 1 ml of TBS pH 7.4, tPA (5 nM) was added in the presence of various amounts of Pi (62.5 to 1000 nM), EACA (0.125 mM to 2 mM) or no inhibitor. After 2.5 h the amount of fibrinolysis was determined by measuring the amount of 125I-fibrin dissolved in the supernatant. Means of duplicate observations are shown. […] Clots were formed as above in the presence of human plasminogen (2 uM) and a2AP (1 uM) or Pi (1 uM) and various amounts of tPA (0-10 nM). Clot dissolution was monitored in duplicate over 2 h in microtiter plate wells at A405 nm. […] Human plasma clots were mixed with various concentrations of Pi IgG, Pi Fab and chimeric Pi Fab (25 nM-400 nM) and plasmin was activated by urokinase. The amount of clot lysis was determined as described in Methods.
Factor V cleavage. Human factor V (2 ug, IHFV, Innovative Research) was mixed with plasmin (0.05 ug) for 1 hr at RT in the presence of EACA (1 mM), Pi (5 ug) or a control monoclonal antibody (digoxin, 5 ug). […] Protein bands were detected by staining with Coomassie blue dye.

Series [3] concerns plasmin-mediated fibrinolysis of human fibrin clots. Briefly: Fibrinolysis of 125I-fibrin human plasma clots with tPA, EACA vs Pi. The note with it: tPA 5 nM, 2.5 h; Pi 62.5 to 1000 nM, EACA 0.125 mM to 2 mM.
The subject of another series is human plasma clots. Briefly: Clot lysis assay of Pi IgG, Fab and chimeric Fab, urokinase. The note with it: 25 nM-400 nM, 30 min. As for the experimental part: FIGS. 4A-4D show comparative inhibition of factor V cleavage and human clot fibrinolysis (dissolution) by Pi, EACA and a2AP. […] The relative migration of molecular weight standards is shown (kDa). […] Human plasma was clotted with CaCl2 (10 mM) and thrombin (1 U/ml) in the presence of trace amounts of 1251 fibrinogen for 1 h at 37 deg. C. After washing in 1 ml of TBS pH 7.4, tPA (5 nM) was added in the presence of various amounts of Pi (62.5 to 1000 nM), EACA (0.125 mM to 2 mM) or no inhibitor. After 2.5 h the amount of fibrinolysis was determined by measuring the amount of 125I-fibrin dissolved in the supernatant. Means of duplicate observations are shown. […] Clots were formed as above in the presence of human plasminogen (2 uM) and a2AP (1 uM) or Pi (1 uM) and various amounts of tPA (0-10 nM). Clot dissolution was monitored in duplicate over 2 h in microtiter plate wells at A405 nm. […] The amount of clot lysis was determined as described in Methods.
The effects of Pi IgG, Fab or chimeric Fab were also compared in a clot lysis assay in microtiter plates. […] C. was monitored at 405 nm. The percent clot dissolution at 30 min. was determined as the percent change in peak turbidity from baseline=100%×(peak absorbance−30 min. absorbance)/(peak absorbance−baseline absorbance).

Here are results for one molecule from patent US11066482B2, “Specific plasmin inactivation by anticatalytic antibody” (priority 2017, dated 2021).

plasmin-mediated cleavage of factor V, sequence (P00747 97-580 limits assumed): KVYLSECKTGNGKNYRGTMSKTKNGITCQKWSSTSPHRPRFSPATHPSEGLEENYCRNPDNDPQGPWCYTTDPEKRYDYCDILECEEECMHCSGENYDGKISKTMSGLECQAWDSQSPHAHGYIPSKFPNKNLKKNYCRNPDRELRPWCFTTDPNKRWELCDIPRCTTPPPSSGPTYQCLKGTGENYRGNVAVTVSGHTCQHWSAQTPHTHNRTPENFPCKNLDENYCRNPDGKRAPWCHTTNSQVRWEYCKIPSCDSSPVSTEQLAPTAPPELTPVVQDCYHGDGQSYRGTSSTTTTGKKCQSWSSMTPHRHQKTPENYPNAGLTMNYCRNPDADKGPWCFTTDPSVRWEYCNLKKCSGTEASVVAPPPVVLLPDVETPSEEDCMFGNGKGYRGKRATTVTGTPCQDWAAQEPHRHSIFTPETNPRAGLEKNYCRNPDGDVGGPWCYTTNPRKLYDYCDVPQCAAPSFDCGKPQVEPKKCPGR
plasmin-mediated cleavage of factor V, sequence (P00747 581-810 limits assumed): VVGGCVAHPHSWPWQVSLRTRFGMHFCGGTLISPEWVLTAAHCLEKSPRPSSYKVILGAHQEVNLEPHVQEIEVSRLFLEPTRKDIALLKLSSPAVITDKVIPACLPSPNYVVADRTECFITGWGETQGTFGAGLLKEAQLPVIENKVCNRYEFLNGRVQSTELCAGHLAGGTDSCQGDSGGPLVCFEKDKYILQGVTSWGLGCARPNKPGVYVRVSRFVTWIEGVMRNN
Plasmin, sequence (P00747 97-580 limits assumed): as the sequence (P00747 97-580 limits assumed) above
Plasmin, sequence (P00747 581-810 limits assumed): as the sequence (P00747 581-810 limits assumed) above

B1: Pi: mouse monoclonal antibody plasmin inhibitor binding plasmin protease domain loops 4 and 5; LC SEQ ID NO:1, HC SEQ ID NO:4 (antibody)
heavy: EVKLLESGGGLVQPGGSLKLSCAASGFDFSRYWMSWVRQAPGKGLEWIGEINPDSSTINYTPSLKDKFIISRDNAKNSLYLQMSKVRSEDTALYYCASYCGYSYDALDCWGQGTSVTVSSAKTTPPSVYPLAPGSAAQTNSMVTLGCLVKGYFPEPVTVTWNSGSLSSGVHTFPAVLQSDLYTLSSSVTVPSSTWPSETVTCNVAHPASSTKVDKKIVPRDCGCKPCICTVPEVSSVFIFPPKPKDVLTITLTPKVTCVVVDISKDDPEVQFSWFVDDVEVHTAQTQPREEQFNSTFRSVSELPIMHQDWLNGKEFKCRVNSVAFPAPIEKTISKTKGRPKAPQVYTIPPPKEQMAKDKVSLTCMITDFFPEDITVEWQWNGQPAENYKNTQPIMDTDGSYFVYGKLNVQKSNWEAGNTFTCSVLHEGLHNHHTEKSLSHSPGK
light: DIQMTQSPSSLSASLGGKVSITCKASQDINKYISWYQHKPGKGPRLLIHYTSTLQPGIPSRFSGSGSGRDYSFSISNLEPEDIATYYCLQYDNLYTFGGGTKLEIKRADAAPTVSIFPPSSEQLTSGGASVVCFLNNFYPKDINVKWKIDGSERQNGVLNSWTDQDSKDSTYSMSSTLTLTKDEYERHNSYTCEATHKTSTSPIVKSFNWNEC
Consider B1, for which the “effect on Vmax of plasmin cleavage of S2251” value with Plasmin is “reduced the Vmax of plasmin cleavage of S2251”. Moreover, in series [1], the “clot dissolution during 120 min” value is given as “did not significantly dissolve”. The “effect on Factor V cleavage by plasmin” value in series [2] is listed as “Factor V cleavage was attenuated”. For the same molecule, the “effect on fibrinolysis of human fibrin clots” value in series [3] is given as “significantly suppressed”. The “inhibition of clot lysis by Pi molecular forms” value in the series with human plasma clots was “effectively inhibited clot lysis”.
